Laboratory results as given in patent publication US20120034212A1 (AstraZeneca / MedImmune, published 2012).
Read-outs that look alike come from different tables or passages of the source.

B1: Antibody 18E (antibody, human IgG1, kappa)
heavy: EVQLVESGGGLVQPGGSLRLSCAASGFTISSNYMIWVRQAPGKGLEWVSDLYYYAGDTYYADSVKGRFTMSRDISKNTVYLQMNSLRAEDTAVYYCARWADDHPPWIDLWGRGTLVTVSSASTKGPSVFPLAPSSKSTSGGTAALGCLVKDYFPEPVTVSWNSGALTSGVHTFPAVLQSSGLYSLSSVVTVPSSSLGTQTYICNVNHKPSNTKVDKRVEPKSCDKTHTCPPCPAPELLGGPSVFLFPPKPKDTLYITREPEVTCVVVDVSHEDPEVKFNWYVDGVEVHNAKTKPREEQYNSTYRVVSVLTVLHQDWLNGKEYKCKVSNKALPAPIEKTISKAKGQPREPQVYTLPPSREEMTKNQVSLTCLVKGFYPSDIAVEWESNGQPENNYKTTPPVLDSDGSFFLYSKLTVDKSRWQQGNVFSCSVMHEALHNHYTQKSLSLSPGK
light: DIQMTQSPSTLSASVGDRVTITCRASQGISSWLAWYQQKPGKAPKVLIYKASTLESGVPSRFSGSGSGTEFTLTISSLQPDDFATYYCQQSWLGGSFGQGTKLEIKRTVAAPSVFIFPPSDEQLKSGTASVVCLLNNFYPREAKVQWKVDNALQSGNSQESVTEQDSKDSTYSLSSTLTLSKADYEKHKVYACEVTHQGLSSPVTKSFNRGEC
notes: Antibody 18 with the M252Y, S254T and T256E substitutions (EU index) in the IgG1 Fc region; Expressed in CHO-K1 cells; also called Ab 18E
B2: Antibody 18 (antibody, V domains shown)
VH: EVQLVESGGGLVQPGGSLRLSCAASGFTISSNYMIWVRQAPGKGLEWVSDLYYYAGDTYYADSVKGRFTMSRDISKNTVYLQMNSLRAEDTAVYYCARWADDHPPWIDLWGRGTLVTVSS
VL: DIQMTQSPSTLSASVGDRVTITCRASQGISSWLAWYQQKPGKAPKVLIYKASTLESGVPSRFSGSGSGTEFTLTISSLQPDDFATYYCQQSWLGGSFGQGTKLEIK
notes: Human anti-IL-6 IgG1 with a wild type Fc region; It is the parent of Antibody 18E; also called Ab 18
B3: IL-6 antibody A (antibody, V domains shown)
VH: QEQLVESGGGLVQPEGSLTLTCIASGWSFSSSHYMCWVRQAPGKGLEWIGCIYTGSGMTYYASWAKGRFTISKTSSTTVTLQMTSLTAADTATYFCARKIGGTDDYGDSLYFSLWGQGTLVTVSS
VL: AQVLTQTPSPVSAAVGGTVTINCQASQSVYNNSKLAWYQQKPGQPPKLLIYKASSLASGVSSRFKGSGSGTQFTLTISGVQCDDAATYYCQHEFSCSSADCVAFGGGTEVVVKG
B4: IL-6 antibody B (antibody, V domains shown)
VH: QSVEESGGRLVTPGTPLTLTCTVSGFSLSAYDMYWVRQAPGKGLEWIGITYGSGKTYYARWAKGRFTISKTSTTVALKITSPTTEDTATYFCARDSGYPGGSSAYNLWGQGTLVTVSS
VL: AAVLTQTPSAVSAAVGGTVTISCQSSQSVTVNNDLAWYQQRPGQPPKLLIYRASNLASRVPSRFSGSGSGTQFTLTISGVQCDDAATYYCLGGYDDDASNAFGGGTEVVVKG

Experiments:
human FcRn = target: T1, human FcRn (human, UniProt P55899 24-297; P61769 21-119, limits assumed); assay: BIAcore, pH 6
T1 construct: also called huFcRn
T1 sequence (P55899 24-297 limits assumed, chain 1 of 2): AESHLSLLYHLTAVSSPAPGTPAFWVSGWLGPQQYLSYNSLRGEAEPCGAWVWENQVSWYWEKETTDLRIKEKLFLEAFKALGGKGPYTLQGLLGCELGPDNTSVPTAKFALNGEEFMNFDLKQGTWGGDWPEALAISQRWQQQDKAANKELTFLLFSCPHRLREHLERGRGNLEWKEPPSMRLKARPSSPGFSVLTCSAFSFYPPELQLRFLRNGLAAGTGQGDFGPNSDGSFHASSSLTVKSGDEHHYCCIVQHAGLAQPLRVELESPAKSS
T1 sequence (P61769 21-119 limits assumed, chain 2 of 2): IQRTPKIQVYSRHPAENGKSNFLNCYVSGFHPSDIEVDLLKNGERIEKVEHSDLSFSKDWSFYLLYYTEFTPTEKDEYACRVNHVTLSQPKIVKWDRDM

cynomolgus FcRn = target: T2, cynomolgus FcRn (cynomolgus, UniProt Q8SPV9 24-297; Q8SPW0 21-119, limits assumed); assay: BIAcore, pH 6
T2 construct: also called cynoFcRn; cyno FcRn
T2 sequence (Q8SPV9 24-297 limits assumed, chain 1 of 2): as the sequence (P55899 24-297 limits assumed, chain 1 of 2) above, with N39D, E44Q, G99S, S189G, S190N, L217M, S269T counted along it
T2 sequence (Q8SPW0 21-119 limits assumed, chain 2 of 2): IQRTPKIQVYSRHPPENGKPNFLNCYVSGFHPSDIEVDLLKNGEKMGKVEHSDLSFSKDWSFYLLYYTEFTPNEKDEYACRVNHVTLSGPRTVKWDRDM

recombinant human IL-6 [1] = target: T3, recombinant human IL-6 (human, UniProt P05231 30-212); assay: cell-based or functional assay
[2] = target: T4, endogenous human IL-6 produced by human synovial fibroblasts (human, UniProt P05231 30-212); assay: cell-based or functional assay
[3] = target: T4, endogenous human IL-6 produced by human …; assay: cell-based or functional assay; remark: listed apart in the source
recombinant human IL-6 [4] = target: T3, recombinant human IL-6; assay: ELISA, E. coli expressed rhuIL-6 as capture reagent
Procedure: ELISA assays were performed according to standard protocols.

[5] = target: endogenous human IL-6 produced by human synovial fibroblasts (human) (UniProt P05231)
Chain of endogenous human IL-6 produced by human synovial fibroblasts (human) (P05231 30-212): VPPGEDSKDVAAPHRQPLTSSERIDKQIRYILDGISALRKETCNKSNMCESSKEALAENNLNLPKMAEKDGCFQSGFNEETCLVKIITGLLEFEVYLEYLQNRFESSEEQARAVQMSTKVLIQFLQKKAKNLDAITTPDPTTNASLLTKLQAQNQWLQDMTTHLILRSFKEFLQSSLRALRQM

[6] = target: endogenous human IL-6 produced by human synovial fibroblasts (human) (UniProt P05231); assay: cell-based or functional assay
recombinant human IL-6 [7] = target: T3, recombinant human IL-6; assay: BIAcore; Example 1 summarises WO 2008/065378; BIAcore; bound at the assay's detection level
recombinant human IL-6 [8] = target: T3, recombinant human IL-6; assay: affinity estimated from the TF-1 Cell Proliferation Assay (cell-based, not a direct binding assay); Example 1 summarises WO 2008/065378; estimated from the TF-1 Cell Proliferation Assay, not BIAcore
recombinant human IL-6 [9] = target: T3, recombinant human IL-6; assay: cell-based or functional assay; remark: listed apart in the source
recombinant human IL-6 [10] = target: T3, recombinant human IL-6; assay: ELISA, E. coli derived recombinant human IL-6 as capture reagent; drawn table 'Avg EC50 (pM)', n = 4

Binder	Kd (human FcRn)	Kd (cynomolgus FcRn)	IC50, inhibition of IL-6 induced TF-1 cell proliferation (recombinant human IL-6 [1])	IC50, inhibition of endogenous IL-6 induced VEGF release from human synovial fibroblasts [2]	IC50, inhibition of endogenous IL-6 induced VEGF release from human synovial fibroblasts [3]	EC50 (recombinant human IL-6 [4])	IC50, inhibition of endogenous IL-6 induced VEGF release from human synovial fibroblasts [5]	IC50, inhibition of endogenous IL-6 induced VEGF release from human synovial fibroblasts [6]	Kd (recombinant human IL-6 [7])	Kd (recombinant human IL-6 [8])	IC50, inhibition of IL-6 induced TF-1 cell proliferation (recombinant human IL-6 [9])	EC50 (recombinant human IL-6 [10])
B1	226 nM	365 nM	0.0052 nM	0.0012 nM	0.0012 nM	0.0065 nM						
B2	2610 nM	1160 nM	0.0045 nM			0.0061 nM	1.3 nM	0.0013 nM	< 0.01 nM	0.0004 nM		
B3					2.8 nM						0.0059 nM	0.0078 nM
B4					2.2 nM						0.0781 nM	0.0141 nM
